Results as given in publication PMC12033333 (Nature Communications, 2025).

T1: MBP-fused phyA^OPM (Arabidopsis thaliana, UniProt P14712 608-1122)
T1 sequence: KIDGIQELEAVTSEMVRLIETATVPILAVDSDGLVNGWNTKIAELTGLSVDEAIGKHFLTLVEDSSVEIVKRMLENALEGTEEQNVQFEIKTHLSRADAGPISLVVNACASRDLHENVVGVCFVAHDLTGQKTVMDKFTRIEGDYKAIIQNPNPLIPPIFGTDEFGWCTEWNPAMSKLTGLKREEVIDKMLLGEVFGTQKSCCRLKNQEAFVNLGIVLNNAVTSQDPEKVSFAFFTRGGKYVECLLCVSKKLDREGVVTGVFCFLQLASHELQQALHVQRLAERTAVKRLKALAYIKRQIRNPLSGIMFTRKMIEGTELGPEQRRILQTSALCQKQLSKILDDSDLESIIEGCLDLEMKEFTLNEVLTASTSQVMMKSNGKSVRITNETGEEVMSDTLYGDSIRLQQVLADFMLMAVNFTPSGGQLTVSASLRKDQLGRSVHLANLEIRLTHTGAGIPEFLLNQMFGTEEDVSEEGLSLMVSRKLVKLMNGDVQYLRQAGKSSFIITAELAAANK

T2: MBP-fused phyB^OPM (Arabidopsis thaliana, UniProt P14713 642-1172)
T2 sequence: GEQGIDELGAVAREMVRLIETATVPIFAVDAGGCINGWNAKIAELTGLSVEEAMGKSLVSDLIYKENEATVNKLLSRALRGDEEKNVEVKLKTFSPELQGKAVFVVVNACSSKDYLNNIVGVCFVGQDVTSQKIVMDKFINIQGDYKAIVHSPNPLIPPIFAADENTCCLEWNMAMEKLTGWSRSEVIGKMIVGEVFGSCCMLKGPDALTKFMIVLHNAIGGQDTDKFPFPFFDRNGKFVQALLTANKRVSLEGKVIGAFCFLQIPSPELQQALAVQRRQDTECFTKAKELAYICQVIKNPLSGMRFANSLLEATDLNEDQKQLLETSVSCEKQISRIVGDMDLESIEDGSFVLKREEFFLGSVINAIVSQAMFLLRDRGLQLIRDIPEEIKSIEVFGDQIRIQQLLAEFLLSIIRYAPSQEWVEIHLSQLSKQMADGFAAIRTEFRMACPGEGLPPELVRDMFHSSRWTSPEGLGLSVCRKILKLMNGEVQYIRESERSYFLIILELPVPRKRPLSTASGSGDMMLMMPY

T3: SBP-fused full-length phyA (Arabidopsis thaliana, UniProt P14712 1-1122, chromophore-bound (phycocyanobilin, PCB))
T3 sequence: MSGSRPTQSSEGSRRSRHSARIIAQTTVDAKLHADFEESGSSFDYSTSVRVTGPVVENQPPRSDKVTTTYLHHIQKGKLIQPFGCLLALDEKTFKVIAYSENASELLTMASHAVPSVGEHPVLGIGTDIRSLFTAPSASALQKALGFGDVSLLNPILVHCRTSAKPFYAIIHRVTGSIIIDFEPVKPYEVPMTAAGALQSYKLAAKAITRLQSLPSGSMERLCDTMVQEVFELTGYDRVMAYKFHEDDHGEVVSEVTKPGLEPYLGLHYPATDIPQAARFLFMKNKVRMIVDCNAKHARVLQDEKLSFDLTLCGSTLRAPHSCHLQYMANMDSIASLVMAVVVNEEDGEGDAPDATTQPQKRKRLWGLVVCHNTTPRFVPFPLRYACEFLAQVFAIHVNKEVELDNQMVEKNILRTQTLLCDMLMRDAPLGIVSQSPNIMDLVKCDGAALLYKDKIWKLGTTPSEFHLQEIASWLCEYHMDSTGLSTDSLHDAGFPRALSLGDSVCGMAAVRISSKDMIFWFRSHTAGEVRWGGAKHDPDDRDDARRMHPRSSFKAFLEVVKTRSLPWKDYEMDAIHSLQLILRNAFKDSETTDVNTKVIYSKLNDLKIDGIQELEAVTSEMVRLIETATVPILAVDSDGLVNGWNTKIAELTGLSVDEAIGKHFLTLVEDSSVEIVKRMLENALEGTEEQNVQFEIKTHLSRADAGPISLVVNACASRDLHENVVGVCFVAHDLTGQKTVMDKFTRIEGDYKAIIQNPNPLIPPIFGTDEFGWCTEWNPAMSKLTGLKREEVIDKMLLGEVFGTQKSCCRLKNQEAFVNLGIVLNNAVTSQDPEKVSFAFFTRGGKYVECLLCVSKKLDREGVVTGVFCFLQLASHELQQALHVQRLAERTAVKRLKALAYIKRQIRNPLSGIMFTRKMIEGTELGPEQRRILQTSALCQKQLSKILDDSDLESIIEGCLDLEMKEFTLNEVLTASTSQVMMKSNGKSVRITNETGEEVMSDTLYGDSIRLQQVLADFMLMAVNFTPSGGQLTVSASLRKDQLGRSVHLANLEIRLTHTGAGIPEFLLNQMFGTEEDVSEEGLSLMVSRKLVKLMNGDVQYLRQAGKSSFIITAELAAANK

B1: GST-tagged PIF1 (natural protein)
chain: MHHFVPDFDTDDDYVNNHNSSLNHLPRKSITTMGEDDDLMELLWQNGQVVVQNQRLHTKKPSSSPPKLLPSMDPQQQPSSDQNLFIQEDEMTSWLHYPLRDDDFCSDLLFSAAPTATATATVSQVTAARPPVSSTNESRPPVRNFMNFSRLRGDFNNGRGGESGPLLSKAVVRESTQVSPSATPSAAASESGLTRRTDGTDSSAVAGGGAYNRKGKAVAMTAPAIEITGTSSSVVSKSEIEPEKTNVDDRKRKEREATTTDETESRSEETKQARVSTTSTKRSRAAEVHNLSERKRRDRINERMKALQELIPRCNKSDKASMLDEAIEYMKSLQLQIQMMSMGCGMMPMMYPGMQQYMPHMAMGMGMNQPIPPPSFMPFPNMLAAQRPLPTQTHMAGSGPQYPVHASDPSRVFVPNQQYDPTSGQPQYPAGYTDPYQQFRGLHPTQPPQFQNQATSYPSSSRVSSSKESEDHGNHTTG
B2: GST-fused APB (PIF3 1-113 a.a.) (domain or fragment)
chain: MPLFELFRLTKAKLESAQDRNPSPPVDEVVELVWENGQISTQSQSSRSRNIPPPQANSSRAREIGNGSKTTMVDEIPMSVPSLMTGLSQDDDFVPWLNHHPSLDGYCSDFLRD
B3: GST-PIF3 (natural protein)
chain: MPLFELFRLTKAKLESAQDRNPSPPVDEVVELVWENGQISTQSQSSRSRNIPPPQANSSRAREIGNGSKTTMVDEIPMSVPSLMTGLSQDDDFVPWLNHHPSLDGYCSDFLRDVSSPVTVNEQESDMAVNQTAFPLFQRRKDGNESAPAASSSQYNGFQSHSLYGSDRARDLPSQQTNPDRFTQTQEPLITSNKPSLVNFSHFLRPATFAKTTNNNLHDTKEKSPQSPPNVFQTRVLGAKDSEDKVLNESVASATPKDNQKACLISEDSCRKDQESEKAVVCSSVGSGNSLDGPSESPSLSLKRKHSNIQDIDCHSEDVEEESGDGRKEAGPSRTGLGSKRSRSAEVHNLSERRRRDRINEKMRALQELIPNCNKVDKASMLDEAIEYLKSLQLQVQIMSMASGYYLPPAVMFPPGMGHYPAAAAAMAMGMGMPYAMGLPDLSRGGSSVNHGPQFQVSGMQQQPVAMGIPRVSGGGIFAGSSTIGNGSTRDLSGSKDQTTTNNNSNLKPIKRKQGSSDQFCGSS
B4: SBP-fused phyB^PSM (domain or fragment)
chain: MVSGVGGSGGGRGGGRGGEEEPSSSHTPNNRRGGEQAQSSGTKSLRPRSNTESMSKAIQQYTVDARLHAVFEQSGESGKSFDYSQSLKTTTYGSSVPEQQITAYLSRIQRGGYIQPFGCMIAVDESSFRIIGYSENAREMLGIMPQSVPTLEKPEILAMGTDVRSLFTSSSSILLERAFVAREITLLNPVWIHSKNTGKPFYAILHRIDVGVVIDLEPARTEDPALSIAGAVQSQKLAVRAISQLQALPGGDIKLLCDTVVESVRDLTGYDRVMVYKFHEDEHGEVVAESKRDDLEPYIGLHYPATDIPQASRFLFKQNRVRMIVDCNATPVLVVQDDRLTQSMCLVGSTLRAPHGCHSQYMANMGSIASLAMAVIINGNEDDGSNVASGRSSMRLWGLVVCHHTSSRCIPFPLRYACEFLMQAFGLQLNMELQLALQMSEKRVLRTQTLLCDMLLRDSPAGIVTQSPSIMDLVKCDGAAFLYHGKYYPLGVAPSEVQIKDVVEWLLANHADSTGLSTDSLGDAGYPGAAALGDAVCGMAVAYITKRDFLFWFRSHTAKEIKWGGAKHHPEDKDDGQRMHPRSSFQAFLEVVKSRSQPWETAEMDAIHSLQLILRDSFKESEAAMNSKVVDGVVQPCRDMAGEQGIDELGAV
modifications: chromophore-bound (phycocyanobilin, PCB)

Experiments:
Experiment in all cases: pull-down
MBP-fused phyA^OPM = molecular target: T1, MBP-fused phyA^OPM
MBP-fused phyB^OPM = molecular target: T2, MBP-fused phyB^OPM
SBP-fused phyB^PSM = molecular target: B4
[1] = molecular target: T3, SBP-fused full-length phyA
[2] = molecular target: B2

B1
binding result (MBP-fused phyA^OPM): binds
binding result (MBP-fused phyB^OPM): binds

B2
binding result (SBP-fused phyB^PSM): binds

B3
binding result [1]: binds
binding result (SBP-fused phyB^PSM): binds

B4
fold strength against the phyB^OPM-APA interaction (m39 on m40) [2]: ~2 fold
